Experimental data as given in patent publication US20260028608A1 (HANSA BIOPHARMA, published 2026).
Positions count from the first letter of the chain named.

Tests used:
Test in all cases: cell-based or functional assay
[1] = target: Humira (Abbvie), human IgG1
[2] = target: XGEVA (Amgen), human IgG2
[3] = target: human IgG3 from Sigma (15654 Lot #SLBW0899) (human)
[4] = target: human IgG4 from Abcam (ab90286 Lot #GR3180469) (human)
[5] = target: Humira (Abbvie), human IgG1; remark: listed apart in the source
[6] = target: XGEVA (Amgen), human IgG2; remark: listed apart in the source

B1: pCART207, a variant IdeZ polypeptide (enzyme)
chain: MDDYQRNATEAYAKEVPHQITSVWTKGVTPPEQFTQGEDVIHAPYLAHQGWYDITKAFDGKDNLLCGAATAGNMLHWWFDQNKTEIEAYLSKHPEKQKIIFRNQELFDLKAAIDTKDSQTNSQLFNYFRDKAFPNLSARQLGVMPDLVLDMFINGYYLNVFKTQSTDVNRPYQDKDKRGGIFDAVFTRGDQTTLLTARHDLKNKGLNDISTIIKQELTEGRALALSHTYANVSISHVINLWGADFNAEGNLEAIYVTDSDANASIGMKKYFVGINAHGHVAISAKKIEGENIGAQVLGLFTLSSGKDIWQKLS
Approximate EC50 value, i.e. equal amounts of scIgG and F(ab')2 (SDS-PAGE) [1]: ~0.04 µg/mL
Conc. of enzyme for cleavage of 1st IgG1 heavy chain, IgG to scIgG (SDS-PAGE) [1]: ~1.5 ng/mL
Conc. of enzyme for cleavage of 2nd IgG1 heavy chain, scIgG to F(ab')2 (SDS-PAGE) [1]: ~120 ng/mL
Approximate EC50 value, i.e. equal amounts of scIgG and F(ab')2 (SDS-PAGE) [2]: ~1.1 µg/mL
Conc. of enzyme for cleavage of 1st IgG2 heavy chain, IgG to scIgG (SDS-PAGE) [2]: ~40 ng/mL
Conc. of enzyme for cleavage of 2nd IgG2 heavy chain, scIgG to F(ab)2 (SDS-PAGE) [2]: ~3300 ng/mL

B2: pCART229, a variant IdeZ polypeptide (enzyme)
chain: B1 chain with D190N
Approximate EC50 value, i.e. equal amounts of scIgG and F(ab')2 (SDS-PAGE) [1]: ~0.04 µg/mL
Conc. of enzyme for cleavage of 1st IgG1 heavy chain, IgG to scIgG (SDS-PAGE) [1]: ~1.5 ng/mL
Conc. of enzyme for cleavage of 2nd IgG1 heavy chain, scIgG to F(ab')2 (SDS-PAGE) [1]: ~120 ng/mL
Approximate EC50 value, i.e. equal amounts of scIgG and F(ab')2 (SDS-PAGE) [2]: ~1.1 µg/mL
Conc. of enzyme for cleavage of 1st IgG2 heavy chain, IgG to scIgG (SDS-PAGE) [2]: ~40 ng/mL
Conc. of enzyme for cleavage of 2nd IgG2 heavy chain, scIgG to F(ab)2 (SDS-PAGE) [2]: ~3300 ng/mL

B3: pCART242, a variant IdeZ polypeptide of the invention (enzyme)
chain: MSVWTKGVTPPEQFTQGEDVIHAPYLAHQGWYDITKAFNGKDDLLCGAATAGNMLHWWFDQNKTEIEAYLSKHPEKQKIIFRNQELFDLKAAIDTKDSQTNSQLFNYFRDKAFPNLSARQLGVMPDLVLDMFINGYYLNVFKTQSTDVNRPYQDKDKRGGIFDAVFTRGNQTTLLTARHDLKNKGLNDISTIIKQELTEGRALALSHTYANVSISHVINLWGADFNAEGNLEAIYVTDSDANASIGMKKYFVGINAHGHVAISAKKIEGENIGAQVLGLFTLSSGKDIWQKLSGGGHHHHHH
Conc. of enzyme for cleavage of 1st IgG1 heavy chain, IgG to scIgG (SDS-PAGE) [1]: ~1.5 ng/mL
Conc. of enzyme for cleavage of 2nd IgG1 heavy chain, scIgG to F(ab')2 (SDS-PAGE) [1]: ~40 ng/mL
Conc. of enzyme for cleavage of 1st IgG2 heavy chain, IgG to scIgG (SDS-PAGE) [2]: ~10 ng/mL
Conc. of enzyme for cleavage of 2nd IgG2 heavy chain, scIgG to F(ab)2 (SDS-PAGE) [2]: ~400 ng/mL

B4: N240, a variant IdeZ polypeptide of the invention (enzyme)
chain: B1 chain with D59N, N63D, D190N
IgG3 EC50 F(ab')2 (SDS-PAGE, visual estimate) [3]: 0.015 µg/mL
IgG3 EC50 scIgG (SDS-PAGE, visual estimate) [3]: 0.007 µg/mL
IgG4 EC50 F(ab')2 (SDS-PAGE, visual estimate) [4]: 0.062 µg/mL
IgG4 EC50 scIgG (SDS-PAGE, visual estimate) [4]: 0.002 µg/mL
IgG1 EC50 F(ab')2 (SDS-PAGE, visual estimate) [5]: 0.014 µg/mL
IgG1 EC50 scIgG (SDS-PAGE, visual estimate) [5]: 0.0005 µg/mL
IgG2 EC50 F(ab')2 (SDS-PAGE, visual estimate) [6]: 0.12 µg/mL
IgG2 EC50 scIgG (SDS-PAGE, visual estimate) [6]: 0.0046 µg/mL
